Measured values reported in IntAct's records for PubMed 25218436.
Blank lines part the entries; values can stand above or below the substance they belong to.

Legend:
cblb_human CBLB [1] = biological target: cblb_human CBLB (UniProt Q13191)
cblb_human CBLB [2] = biological target: cblb_human CBLB (UniProt Q13191); remark: listed apart in the source
cblb_human CBLB [3] = biological target: cblb_human CBLB (UniProt Q13191); remark: listed apart in the source
cblb_human CBLB [4] = biological target: cblb_human CBLB (UniProt Q13191); remark: listed apart in the source

Chain of cblb_human CBLB (Q13191 whole entry): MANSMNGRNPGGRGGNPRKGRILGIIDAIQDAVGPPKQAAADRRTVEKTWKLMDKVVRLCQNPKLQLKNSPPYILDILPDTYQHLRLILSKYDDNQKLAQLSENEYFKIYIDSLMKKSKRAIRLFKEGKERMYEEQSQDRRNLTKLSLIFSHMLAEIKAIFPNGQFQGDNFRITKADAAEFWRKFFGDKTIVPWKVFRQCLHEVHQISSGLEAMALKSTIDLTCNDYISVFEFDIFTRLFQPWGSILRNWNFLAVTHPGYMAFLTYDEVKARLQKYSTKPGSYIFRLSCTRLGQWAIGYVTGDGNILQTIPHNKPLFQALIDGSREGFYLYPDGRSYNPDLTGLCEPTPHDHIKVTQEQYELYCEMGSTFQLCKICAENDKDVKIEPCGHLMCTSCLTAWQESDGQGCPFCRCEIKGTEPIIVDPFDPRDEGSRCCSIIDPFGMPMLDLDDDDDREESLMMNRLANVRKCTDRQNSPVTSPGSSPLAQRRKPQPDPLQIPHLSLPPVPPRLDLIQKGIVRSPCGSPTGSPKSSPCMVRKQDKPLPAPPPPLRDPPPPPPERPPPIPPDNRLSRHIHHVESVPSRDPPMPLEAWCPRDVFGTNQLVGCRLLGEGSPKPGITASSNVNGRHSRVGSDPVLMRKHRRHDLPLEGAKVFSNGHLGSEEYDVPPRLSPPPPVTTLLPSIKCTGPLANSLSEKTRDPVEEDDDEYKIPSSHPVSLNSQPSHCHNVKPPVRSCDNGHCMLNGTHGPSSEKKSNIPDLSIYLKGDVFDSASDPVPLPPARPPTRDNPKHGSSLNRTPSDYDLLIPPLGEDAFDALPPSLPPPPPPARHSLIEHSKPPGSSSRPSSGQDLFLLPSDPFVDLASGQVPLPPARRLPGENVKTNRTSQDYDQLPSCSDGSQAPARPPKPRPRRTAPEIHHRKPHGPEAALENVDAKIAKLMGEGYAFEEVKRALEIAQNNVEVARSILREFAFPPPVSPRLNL

- effect of a mutation on the interaction (cblb_human CBLB [1]): disrupting interaction
Substance: SH2/SH3 adapter protein NCK1 (Homo sapiens) (from UniProt P16333) W38K

- effect of a mutation on the interaction (cblb_human CBLB [2]): disrupting interaction
Substance: SH2/SH3 adapter protein NCK1 (Homo sapiens) (from UniProt P16333) W38K;W143K;W229K

- effect of a mutation on the interaction (cblb_human CBLB [3]): disrupting interaction
Substance: SH2/SH3 adapter protein NCK1 (Homo sapiens) (from UniProt P16333) W143K

- effect of a mutation on the interaction (cblb_human CBLB [4]): disrupting interaction
Substance: SH2/SH3 adapter protein NCK1 (Homo sapiens) (from UniProt P16333) W229K
